Test results taken from the supplement of paper PMC9170038.

System: MS2 coat protein
Experiment: apparent KD of MS2 coat protein; designed switch direction (-1 OFF switch, 1 ON switch): -1; higher = weaker reporter binding
Outline: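 Designed RNA switches with common flanks were made on Illumina chips by stalled E. coli RNA polymerase. Titration with SNAP-549-labelled MS2 coat protein doubled from 0.7 or 1.5 nM up to 3 µM. Apparent KD is each design's median over clusters after curve-fitting normalised fluorescence.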

[1] = Eterna round: R95, input ligand: FMN 200 uM
[2] = Eterna round: R95, input ligand: microRNA oligo, concentration not stated
[3] = Eterna round: R95, input ligand: none
[4] = input ligand: microRNA oligo, concentration not stated

Row | Sequence | apparent KD of MS2 coat protein (input ligand: FMN 200 uM) [nM] | apparent KD of MS2 coat protein (input ligand: none) [nM] | apparent KD of MS2 coat protein [2] [nM] | also measured
1 | GCACUGCGAGGAUAUACAUGAGGAUCACCCAUGUAUCGGUAGUCAAGGUUAAUUUAAGGUAGAAGGCGCGUAAA [JR_Ex3_Sub005] (Eterna round: R97, puzzle: Exclusion 3) | 27.4 | 23.5 | – | –
2 | UUUAAUUUUUUUUUUUUACAAGCUUUUUGCUCGUCUUAUACAUGAGGAUCACCCAUGUGAGUGGGAGGUAAAUUAUC [JMF 77] (puzzle: Sensor v3, turn-off variant 2) | – | – | 276 | apparent KD of MS2 coat protein [1]: 57.7 nM; apparent KD of MS2 coat protein [3]: 70 nM
3 | CGAGUGUAAGGAUAUUCGGCGCCAGGGAACAACCUAGCGUAGAAGAAGGUACAUGAGGAUCACCCAUGUGGUUA [Riatees] (puzzle: Exclusion 4) | – | – | 151 | –
4 | UAUUAGCAAGCGAGAUCUCACAUGAGGAUCACCCAUGUGCUCGUCUUAUAAGGUACUGUGACGAUAGUCACGGUACC [Mat - Sensor, turn-off var - Eli Mod - D38] (Eterna round: R97, puzzle: Sensor, turn-off variant 1) | 15.3 | 14.6 | – | –
5 | UUGUAGUUUGUAGGAUAUGGUUAUGUAUGUAAUCUAGAAGGACAUGAGGAUCACCCAUGUGGAGGUAAGUUGGGAAGAAGUAAU [random1] (Eterna round: R96, puzzle: Exclusion NG 1) | 55.6 | 56.4 | – | apparent KD of MS2 coat protein [4]: 30.8 nM
6 | GUUAGUUAAGGAUAUACAGGGAGCUGCGGCGUCUCGCCGCAACAUGAGGAUCACCCAUGUAGAAGGUGACCUUU [JL ViennaUCT Enbibi mod 7] (puzzle: Exclusion 2) | – | – | 435 | –
7 | AACUUGUAAGGAUAUACAUGAGGAUCACCCAUGUGUCCCACGAACCGACAGGUCGUCUGUAGAAGGUGCAACAU [Eternabot (L1) Solution 88] (Eterna round: R97, puzzle: Exclusion 3) | 29 | 27.4 | – | –
8 | GCUGGUCGAGGAUAUACAUGAGGAUCACCCAUGUGGUCACGUGACGAUAGUCACGAAUGUAGAAGGUGACCAGC [E3/3-B1] (Eterna round: R97, puzzle: Exclusion 3) | 107 | 1760 | – | –
9 | ACAUGAGGAUCACCCAUGUAAACAUGAUGGCUGAUGUAGAGCUAGGAUAUGAGUGGCUUUCUAUCUCAGAAGGAGCUUGACUGG [Deportation 43 - Jieux - Exclusion NG 3] (Eterna round: R96, puzzle: Exclusion NG 3) | 30.8 | 35.7 | – | apparent KD of MS2 coat protein [4]: 22.8 nM
10 | UACAUGAGGAUCACCCAUGUUUUGUCGUGUAUGGUAUUUAUCUAGGAUAUCAAUGUAUUUAUGUAUGAGAAGGAGAAUAUUAAU [JMF's solution 47] (Eterna round: R96, puzzle: Exclusion NG 3) | – | – | – | apparent KD of MS2 coat protein [4]: 32.3 nM
11 | ACGUGAUAUCUGUCGGUGGACAUGAGGAUCACCCAUGUGAGCUUUUUGCUCGUCUUACAACCCGGUGACAGACCUUC [Bebitier] (puzzle: Sensor v3, turn-off variant 1) | – | – | 262 | apparent KD of MS2 coat protein [1]: 23.6 nM; apparent KD of MS2 coat protein [3]: 21.4 nM
12 | CAAAACUGAGGAUAUACAUGAGGAUCACCCAUGUCCAAGGUCCUGGGCGGAUGCUGCUGUAGAAGGCGGAAAGA [Diatsobi] (puzzle: Exclusion 3) | – | – | 21.8 | –
13 | CUUUAGUGAGGAUAUCAGUAGUAAUACAAUAGUAUUACUACUGAGAAGGCACAUGAGGAUCACCCAUGUUUCUC [Mat - Exclusion 4 - Mod of Omei - D78] (puzzle: Exclusion 4) | – | – | 28 | –
14 | GCGAUAAACGAGGAUAUCGUAUCGGAAACGAUACGAGAAGGUGUAACAUGAGGAUCACCCAUGUUCCUCAACGC [Mat - Exclusion 6 - Eli Mod - D65] (puzzle: Exclusion 6) | – | – | 36.3 | –
15 | CUAGUCCGAGGAUAUAUUAAGUGAUACAUGAGGAUCACCCAUGUUAUUUAAUGGAUAUUAAUAGAAGGCGGACUAG [Mat - Exclusion 5 - JL mod - D78] (puzzle: Exclusion 5) | – | – | 32.1 | apparent KD of MS2 coat protein [1]: 42.6 nM; apparent KD of MS2 coat protein [3]: 31.3 nM
16 | AAUUCACAUGAGGAUCACCCAUGUCAGGAUAUGGUUUCACGUUUUUCUUUUCUUGAUUCCAGAAGGGACAGCUA (puzzle: Exclusion 1) | – | – | 58.6 | –

Row | Sequence | apparent KD of MS2 coat protein (input ligand: FMN 200 uM) [nM] | apparent KD of MS2 coat protein (input ligand: none) [nM] | apparent KD of MS2 coat protein [2] [nM] | also measured
17 | GGCCUGUGAGGAUAUUAGUAGUAGAUAAAAUAAACUAUUACUGAGAAGGCACAUGAGGAUCACCCAUGUUGGCC [Eli x4 4.05] (Eterna round: R97, puzzle: Exclusion 4) | 20.3 | 16.4 | – | –
18 | AGUCAGGCGGUAGGAUAUCCAAAUCGAGUGACCCUUUCAUAACAUGAGGAUCACCCAUGUCGGUGGGAGAAGGGCCGUACGGCG [JL ViennaUCT Atra mod 3] (Eterna round: R96, puzzle: Exclusion NG 2) | 232 | 104 | – | apparent KD of MS2 coat protein [4]: 88 nM
19 | UGUUGUCGCGCAGGAUAUGAGGAUCACCCAUAUAAGGAUAUCGAAAGAGAAGGUCUGAGGAUUACCCAGAAGGGCGGGACAACU [pwkr exNG2 2xF5 2xFMN.30] (Eterna round: R96, puzzle: Exclusion NG 2) | 309 | 70.1 | – | apparent KD of MS2 coat protein [4]: 43.8 nM
20 | UAUAUAUAGUAAGGAUAUGUAAUAAUUUUAUAAACAGAAGGUACUGACAUGAGGAUCACCCAUGUUUUAGUGUGGGCAUGUAGA [JMF's solution 30] (Eterna round: R96, puzzle: Exclusion NG 1) | – | – | – | apparent KD of MS2 coat protein [4]: 73.2 nM
21 | GGGUGCAGGCUAAGAUCCUACAUGAGGAUCACCCAUGUGGUCCGGUGACGUGAGUCACCGGACUUAGCUCGUCUUGU [salish99_S_TOV1_R5_006] (Eterna round: R97, puzzle: Sensor, turn-off variant 1) | 133 | 142 | – | –
22 | GCAGCAUAGUUUACUAACUGUUACAUGAGGAUCACCCAUGUUGAGGAUAUGGUCUGGAUUACAGGCCAGAAGGCGACAAGCUGC [Eli exng3 - 028] (Eterna round: R96, puzzle: Exclusion NG 3) | 18.1 | 16.9 | – | apparent KD of MS2 coat protein [4]: 13 nM
23 | AAUAAUAAGGAGGAUAUCGUAUCGGAAACGAUACGAGAAGGUCUAACAUGAGGAUCACCCAUGUUCCUCAAAUA [Mat - Exclusion 6 - Eli Mod - D44] (puzzle: Exclusion 6) | – | – | 37.1 | –
24 | GGCAUGUAAGGAUAUGCCACGCAGGCCUUUGGCCUGCGUAAGCAGAAGGUACAUGAGGAUCACCCAUGUGAUAA [jl-ex4-4.57 ViennaUCT mod] (Eterna round: R97, puzzle: Exclusion 4) | 129 | 727 | – | –
25 | CAGUACUGAGGAUAUACAUGAGGAUCACCCAUGUGUUCCAGCUAGGAUACUAGCAAAUGUAGAAGGCAGUACUG [Mat - Exclusion 3 - Eli Mod - D8] (Eterna round: R97, puzzle: Exclusion 3) | 62.9 | 227 | – | –
26 | AAAAGGCAGGGAGGAUAUGCUUGCCUGGGUCGUCUUCAAACAUGAGGAUCACCCAUGUAGUCGACGCAGAAGGCCCUCAAAGAA [Mat - Exclusion NG 2 - Mod of JL - D62] (Eterna round: R96, puzzle: Exclusion NG 2) | 37.7 | 57.2 | – | apparent KD of MS2 coat protein [4]: 40.8 nM
27 | AAUUAAUUAAUUAAUUAAUACAUGAGGAUCACCCAUGUAAUUUAAGAUCCUUAUACAAGCUUUGAUCUCGUCUUAUA [Stov1/5-A1] (Eterna round: R97, puzzle: Sensor, turn-off variant 1) | 94.5 | 106 | – | –
28 | UAUACACAUGAGGAUCACCCAUGUGAGGAUAUGUACAACAACAAGACGGAAAAAAAAUACAGAAGGCACAAAUA [JR_Exclusion1_Sub028] (puzzle: Exclusion 1) | – | – | 25.7 | apparent KD of MS2 coat protein [1]: 22.7 nM; apparent KD of MS2 coat protein [3]: 32.4 nM
29 | AAUUGCUAGCCGAUCCUCCACAUGAGGAUCACCCAUGUGCUCGUCUUGUAAUGUGCUAUCACGAAAGUGAUAGUACA [Sensor v3, turn-off variant 1 (MOD of Eli's v1-59 v.4)] (puzzle: Sensor v3, turn-off variant 1) | – | – | 13.4 | apparent KD of MS2 coat protein [1]: 413 nM; apparent KD of MS2 coat protein [3]: 315 nM
30 | UAUAUAUAGUAAGGAUAUGUAAUUCUUUUAUAAACAGAAGGUACUGACAUGAGGAUCACCCAUGUUUUAGUGUGGGCAUGUAGA [JMF's solution 34] (Eterna round: R96, puzzle: Exclusion NG 1) | – | – | – | apparent KD of MS2 coat protein [4]: 53.1 nM
31 | AACCAGCGAGGAUAUCGUUCGGAUAACAUGAGGAUCACCCAUGUGAGUCGUGUUUACGAACGAGAAGGCGCGACUC [Cequus] (Eterna round: R97, puzzle: Exclusion 5) | 218 | 798 | – | –
